{"source": "paper PMC4663176", "about": "(Insect biochemistry and molecular biology, 2015)", "key": {"[1]": {"target": "T1, Arylalkylamine N-acyltransferase like 2 (AANATL2) (Drosophila melanogaster, UniProt Q9VMG0)", "T1 sequence (Q9VMG0 1-216)": "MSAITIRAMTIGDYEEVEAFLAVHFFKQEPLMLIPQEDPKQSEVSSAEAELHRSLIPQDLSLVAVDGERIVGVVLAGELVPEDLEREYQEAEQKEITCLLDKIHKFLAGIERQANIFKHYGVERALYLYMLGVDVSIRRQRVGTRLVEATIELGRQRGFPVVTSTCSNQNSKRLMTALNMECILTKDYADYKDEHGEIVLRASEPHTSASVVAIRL", "test": "dead-end inhibition kinetics, DTNB assay of CoA release, purified enzyme", "type": "biochemical"}, "[2]": {"target": "T1, Arylalkylamine N-acyltransferase like 2 (AANATL2)", "test": "dead-end inhibition kinetics, DTNB assay of CoA release, purified enzyme", "type": "biochemical", "remark": "listed apart in the source"}, "purified protein [3]": {"substrate": "NCCc1cccc(C(F)(F)F)c1", "test": "purified protein", "settings": "acetyl-CoA; pH 8.0"}, "purified protein [4]": {"substrate": "CC(=O)SCCNC(=O)CCNC(=O)[C@H](O)C(C)(C)COP(=O)(O)OP(=O)(O)OC[C@H]1O[C@@H](n2cnc3c(N)ncnc32)[C@H](O)[C@@H]1OP(=O)(O)O", "test": "purified protein", "settings": "acetyl-CoA binds first in an ordered sequential mechanism"}, "steady-state kinetics [5]": {"substrate": "CC(CN)c1ccccc1", "test": "steady-state kinetics", "type": "biochemical, Drosophila melanogaster", "settings": "acetyl-CoA; pH 8.0"}, "steady-state kinetics [6]": {"substrate": "COc1ccc(CCN)cc1", "test": "steady-state kinetics", "type": "biochemical, Drosophila melanogaster", "settings": "acetyl-CoA; pH 8.0"}, "steady-state kinetics [7]": {"substrate": "NCCc1c[nH]c2ccccc12", "test": "steady-state kinetics", "type": "biochemical, Drosophila melanogaster", "settings": "acetyl-CoA; pH 8.0"}, "steady-state kinetics [8]": {"substrate": "NCCCCc1ccccc1", "test": "steady-state kinetics", "type": "biochemical, Drosophila melanogaster", "settings": "acetyl-CoA; pH 8.0"}, "steady-state kinetics [9]": {"substrate": "NCCc1c[nH]c2ccc(OCc3ccccc3)cc12", "test": "steady-state kinetics", "type": "biochemical, Drosophila melanogaster", "settings": "acetyl-CoA; pH 8.0"}}, "note": "Where two headings read alike, the source gives them in different places.", "data": [{"molecule": "OCCc1ccc(O)cc1", "note": "[tyrosol]", "values": [{"measurement": "Ki", "setting": "[1]", "value": "52 ± 9", "unit": "µM"}]}, {"molecule": "CCCCCCCC/C=C\\CCCCCCCC(=O)SCCNC(=O)CCNC(=O)[C@H](O)C(C)(C)COP(=O)(O)OP(=O)(O)OC[C@H]1O[C@@H](n2cnc3c(N)ncnc32)[C@H](O)[C@@H]1OP(=O)(O)O", "note": "[oleoyl-CoA]", "values": [{"measurement": "Ki", "setting": "[2]", "value": "0.18 ± 0.03", "unit": "µM"}]}, {"molecule": "Arylalkylamine N-acyltransferase like 2 (AANATL2) (Drosophila melanogaster) (protein) MSAITIRAMTIGDYEEVEAFLAVHFFKQEPLMLIPQEDPKQSEVSSAEAELHRSLIPQDLSLVAVDGERIVGVVLAGELVPEDLEREYQEAEQKEITCLLDKIHKFLAGIERQANIFKHYGVERALYLYMLGVDVSIRRQRVGTRLVEATIELGRQRGFPVVTSTCSNQNSKRLMTALNMECILTKDYADYKDEHGEIVLRASEPHTSASVVAIRL", "values": [{"measurement": "Km", "setting": "purified protein [3]", "value": "10 ± 2", "unit": "µM"}, {"measurement": "kcat", "setting": "purified protein [3]", "value": "4.5 ± 0.2", "unit": "s⁻¹"}, {"measurement": "kcat/Km", "setting": "purified protein [3]", "value": "440000 ± 70000", "unit": "M⁻¹ s⁻¹"}, {"measurement": "Km", "setting": "purified protein [4]", "value": "5 ± 1", "unit": "µM"}, {"measurement": "kcat", "setting": "purified protein [4]", "value": 1.6, "unit": "s⁻¹"}, {"measurement": "kcat/Km", "setting": "purified protein [4]", "value": 310000, "unit": "M⁻¹ s⁻¹"}, {"measurement": "Km", "setting": "steady-state kinetics [5]", "value": "9 ± 1", "unit": "µM"}, {"measurement": "kcat", "setting": "steady-state kinetics [5]", "value": "2.9 ± 0.1", "unit": "s⁻¹"}, {"measurement": "kcat/Km", "setting": "steady-state kinetics [5]", "value": "320000 ± 40000", "unit": "M⁻¹ s⁻¹"}, {"measurement": "Km", "setting": "steady-state kinetics [6]", "value": "10 ± 2", "unit": "µM"}, {"measurement": "kcat", "setting": "steady-state kinetics [6]", "value": "3.7 ± 0.1", "unit": "s⁻¹"}, {"measurement": "kcat/Km", "setting": "steady-state kinetics [6]", "value": "370000 ± 60000", "unit": "M⁻¹ s⁻¹"}, {"measurement": "Km", "setting": "steady-state kinetics [7]", "value": "14 ± 3", "unit": "µM"}, {"measurement": "kcat", "setting": "steady-state kinetics [7]", "value": "4.3 ± 0.3", "unit": "s⁻¹"}, {"measurement": "kcat/Km", "setting": "steady-state kinetics [7]", "value": "310000 ± 60000", "unit": "M⁻¹ s⁻¹"}, {"measurement": "Km", "setting": "steady-state kinetics [8]", "value": "9.5 ± 0.4", "unit": "µM"}, {"measurement": "kcat", "setting": "steady-state kinetics [8]", "value": "1 ± 0.02", "unit": "s⁻¹"}, {"measurement": "kcat/Km", "setting": "steady-state kinetics [8]", "value": "110000 ± 5000", "unit": "M⁻¹ s⁻¹"}, {"measurement": "Km", "setting": "steady-state kinetics [9]", "value": "8 ± 1", "unit": "µM"}, {"measurement": "kcat", "setting": "steady-state kinetics [9]", "value": "2.8 ± 0.1", "unit": "s⁻¹"}, {"measurement": "kcat/Km", "setting": "steady-state kinetics [9]", "value": "330000 ± 40000", "unit": "M⁻¹ s⁻¹"}]}]}
